The record followed here is PMC9722718, “Structural basis of sequence-specific RNA recognition by the antiviral factor APOBEC3G”.

In general, Kd refers to the concentration at which binding is half-saturated.

For one data set, the target named is rA3GR8 (Macaca mulatta (rhesus macaque), UniProt M1GSK9 1-138+=AEAG+147-383, internal_change). In words: EMSA; EMSA: 10 nM 6-FAM RNA, 50 mM HEPES pH 7.5, 250 mM NaCl, 1 mM DTT, 0.4 U/ul RNase inhibitor, 10% glycerol, on ice 10 min, 8% native PAGE at 4 C. To be noted: protein: recombinant; tags: 6xHis-SUMO removed by PreScission protease; label: 6-FAM; single strand. (In EMSA bound probe runs differently from free probe, usually more slowly.)

Data set [1] addresses T1, rA3GR8/E259A (Macaca mulatta (rhesus macaque), UniProt M1GSK9 1-138+=AEAG+147-383, E259A;internal_change). The data set can be described thus: X-ray crystallography; 1.83 A; 1:1; EMSA: 10 nM 6-FAM RNA, 50 mM HEPES pH 7.5, 250 mM NaCl, 1 mM DTT, 0.4 U/ul RNase inhibitor, 10% glycerol, on ice 10 min, 8% native PAGE at 4 C. The following applies: protein: recombinant; tags: 6xHis-SUMO removed by PreScission protease; single strand.

Data set [2] has as its target T1, rA3GR8/E259A. In words: X-ray crystallography; 1:1; EMSA: 10 nM 6-FAM RNA, 50 mM HEPES pH 7.5, 250 mM NaCl, 1 mM DTT, 0.4 U/ul RNase inhibitor, 10% glycerol, on ice 10 min, 8% native PAGE at 4 C. To be noted: protein: recombinant; tags: 6xHis-SUMO removed by PreScission protease; single strand.
Another data set deals with GST-NCp7 (HIV-1, UniProt P04591 378-432). The data set can be described thus: EMSA; best binder; EMSA: 10 nM 6-FAM RNA, 50 mM HEPES pH 7.5, 250 mM NaCl, 1 mM DTT, 0.4 U/ul RNase inhibitor, 10% glycerol, on ice 10 min, 8% native PAGE at 4 C. The following applies: protein: recombinant; tags: N-terminal GST; label: 6-FAM; single strand.

Sequence of rA3GR8 (M1GSK9 entry or part of it): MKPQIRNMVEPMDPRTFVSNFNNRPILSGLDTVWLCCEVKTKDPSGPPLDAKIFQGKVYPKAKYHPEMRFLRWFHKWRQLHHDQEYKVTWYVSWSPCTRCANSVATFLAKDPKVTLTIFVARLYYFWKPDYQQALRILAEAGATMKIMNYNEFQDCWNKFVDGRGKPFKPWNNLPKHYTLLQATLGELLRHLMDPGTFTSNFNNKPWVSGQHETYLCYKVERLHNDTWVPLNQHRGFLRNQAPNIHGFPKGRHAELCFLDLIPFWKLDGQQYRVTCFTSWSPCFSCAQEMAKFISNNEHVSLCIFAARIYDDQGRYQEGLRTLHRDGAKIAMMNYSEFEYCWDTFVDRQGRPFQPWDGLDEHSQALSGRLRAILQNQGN
T1 sequence (M1GSK9 entry or part of it E259A/| E259A E259A): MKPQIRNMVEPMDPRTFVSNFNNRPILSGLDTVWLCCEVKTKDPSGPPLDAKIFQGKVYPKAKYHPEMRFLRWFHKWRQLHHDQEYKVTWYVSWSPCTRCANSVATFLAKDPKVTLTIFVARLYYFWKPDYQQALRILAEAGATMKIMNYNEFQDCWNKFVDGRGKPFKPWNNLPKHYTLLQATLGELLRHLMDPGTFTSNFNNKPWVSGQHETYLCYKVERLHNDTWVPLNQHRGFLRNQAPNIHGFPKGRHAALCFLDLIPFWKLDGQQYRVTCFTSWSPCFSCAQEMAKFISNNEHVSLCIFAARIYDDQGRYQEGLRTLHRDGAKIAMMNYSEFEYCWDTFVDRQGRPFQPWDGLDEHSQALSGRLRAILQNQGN

Take UUUUAAUUUU (ssRNA) [RNA3-AA]: the Kd with rA3GR8 stood at 10 nM.

Consider UUUUAGUUUU (ssRNA) [RNA3-AG], for which the dissociation constant (Kd) with rA3GR8 was found to be 200 nM.

Consider UUUUGAUUUU (ssRNA) [RNA3-GAxtal], for which, in the data set with rA3GR8/E259A [1], the binding result was “binds”.

Consider UUUUAAUUUU (ssRNA) [RNA3-AAxtal], for which the binding result with rA3GR8/E259A [2] was “binds”.

For the molecule UUUUGAUUUU (ssRNA) [RNA3-GA], the Kd in the data set with rA3GR8 was found to be 47 nM.

As for UUUUGGUUUU (ssRNA) [RNA3-GG], in the data set with GST-NCp7, the binding result is “binds”.
